Data: paper PMC7677505

Assays:
[1] = molecular target: Endogenous BAFF (human (endogenous in serum, CSF, cord blood)); test: SEC; 8-fold concentrated pool of CSF of multiple sclerosis patients at pH 8.2, 30 mM NaCl; also after depletion on anti-APRIL mAb 104; ELISA with capture at pH 5.5 and BAFFR:Fas reporter cells
[2] = molecular target: Endogenous BAFF (human (endogenous in serum, CSF, cord blood)); test: SEC; BAFFR-deficient human serum on Superdex S200 Increase in Hepes buffer pH 8.2; BAFF activity of fractions read on BCMA:Fas reporter cells; fractions 15-17 pooled, concentrated and run again
[3] = molecular target: Endogenous BAFF (human (endogenous in serum, CSF, cord blood)); test: SEC; endogenous BAFF affinity-purified on atacicept from CSF or from serum of a CVID patient, SEC at pH 8.2; ELISA with capture at pH 5.5 and BAFFR:Fas reporter cells
[4] = molecular target: Endogenous BAFF (human (endogenous in serum, CSF, cord blood)); test: SEC; cord blood sera in Hepes pH 8.2, 30 mM NaCl, 10 ug/ml BSA; fractions lyophilized; ELISA at pH 5.5 and BAFFR:Fas reporter cells with antibody 2.81
[5] = molecular target: Endogenous BAFF (human (endogenous in serum, CSF, cord blood)); test: SEC; adult human sera (normal, CVID, BAFFR-deficient, BTK-deficient) in Hepes pH 8.2, 30 mM NaCl, 10 ug/ml BSA; fractions lyophilized; ELISA at pH 5.5 and BAFFR:Fas reporter cells with antibody 2.81

Substance Endogenous BAFF (ligand) has a stoichiometry N [1] of 3, a stoichiometry N [2] of 2.7 and a stoichiometry N [3] of 3. It also gave a stoichiometry N [4] of 3 and a stoichiometry N [5] of 3.
